Experimental data: patent US20210373004A1

Tests used:
[1] = molecular target: Flag-mCherry-ColKhan-Cys-6His (Photorhabdus khanii); assay: EIA 8 plex n° 1: colicin coated at 100 nM, Im-RLuc8 alone at 100 nM, luciferase signal
[2] = molecular target: Flag-mCherry-ColErw-Cys-6His (Pectobacterium carotovorum); assay: EIA 8 plex n° 2: colicin coated at 100 nM, Im-RLuc8 alone at 100 nM, luciferase signal
[3] = molecular target: Flag-mCherry-ColKhan-Cys-6His (Photorhabdus khanii); assay: as above

Measured: RLU

B1: Myc-RLuc8-Im9-6His (protein)
chain: MGGEQKLISEEDLGGSASKVYDPEQRKRMITGPQWWARCKQMNVLDSFINYYDSEKHAENAVIFLHGNATSSYLWRHVVPHIEPVARCIIPDLIGMGKSGKSGNGSYRLLDHYKYLTAWFELLNLPKKIIFVGHDWGAALAFHYAYEHQDRIKAIVHMESVVDVIESWDEWPDIEEDIALIKSEEGEKMVLENNFFVETVLPSKIMRKLEPEEFAAYLEPFKEKGEVRRPTLSWPREIPLVKGGKPDVVQIVRNYNAYLRASDDLPKLFIESDPGFFSNAIVEGAKKFPNTEFVKVKGLHFLQEDAPDEMGKYIKSFVERVLKNEQKLELKHSISDYTEAEFLQLVTTICNADTSSEEELVKLVTHFEEMTEHPSGSDLIYYPKEGDDDSPSGIVNTVKQWRAANGKLEGGGSHHHHHH
> 100000 RLU: all assays above
